From patent publication US20060252677A1

Target: NMDA receptor (NMDA receptor/2B subunit and NMDA receptor I) expressed in Xenopus oocytes (human) (UniProt Q13224)
Test: cell-based or functional assay

Chain of Protein-X (novel PSD) expressed from injected RNA in Xenopus oocytes (Q5T2T1 whole entry K322R): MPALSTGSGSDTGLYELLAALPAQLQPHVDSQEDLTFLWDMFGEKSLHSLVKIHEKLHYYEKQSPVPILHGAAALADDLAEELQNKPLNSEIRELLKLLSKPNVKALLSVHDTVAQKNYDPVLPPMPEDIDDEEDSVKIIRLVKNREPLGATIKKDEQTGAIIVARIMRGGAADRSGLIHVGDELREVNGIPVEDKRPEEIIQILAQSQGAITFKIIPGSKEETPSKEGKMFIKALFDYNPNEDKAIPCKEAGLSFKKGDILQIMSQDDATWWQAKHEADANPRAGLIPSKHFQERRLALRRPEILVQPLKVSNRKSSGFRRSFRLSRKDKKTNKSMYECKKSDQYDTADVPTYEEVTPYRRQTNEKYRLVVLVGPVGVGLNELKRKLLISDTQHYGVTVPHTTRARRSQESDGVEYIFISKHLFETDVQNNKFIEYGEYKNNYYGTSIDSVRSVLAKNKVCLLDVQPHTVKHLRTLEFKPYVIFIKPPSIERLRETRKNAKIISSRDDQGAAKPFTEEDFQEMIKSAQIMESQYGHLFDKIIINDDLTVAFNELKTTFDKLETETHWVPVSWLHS

Protein-X (novel PSD) expressed from injected RNA in Xenopus oocytes (from UniProt Q5T2T1 1-576)
Current variation (µA), Average: 0.55 µA | Current variation (µA), Standard deviation: 0.15 µA | Current variation (µA), oocyte #1, 1000 µM Glu + 10 µM Gly: 0.6 µA | Current variation (µA), oocyte #2, 1000 µM Glu + 10 µM Gly: 0.81 µA | Current variation (µA), oocyte #3, 1000 µM Glu + 10 µM Gly: 0.38 µA | Current variation (µA), oocyte #4, 1000 µM Glu + 10 µM Gly: 0.57 µA | Current variation (µA), oocyte #5, 1000 µM Glu + 10 µM Gly: 0.41 µA | Current variation (µA), oocyte #6, 1000 µM Glu + 10 µM Gly: 0.54 µA | current response to the ligand stimulation, against oocytes expressing PSD-95 with the NMDA receptor: 1.5 times
